Assay results as given in publication PMC9394524.

Molecular target: Kel1 (UniProt P38853)
Assay: GFP-trap IP of Kel1-GFP, anti-FLAG blot
Conditions: reference: wild-type Sst2-3xFLAG; sites S539

Substance: RGS Sst2 (from UniProt P11972) S539A
- binding against the reference: stronger
